Measurements as given in US10626154B2, “Binding domains directed against GPCR:G protein complexes and uses derived thereof” (VIB VZW, priority 2011, dated 2020).
Entries after “also recorded” stand apart in the source; their conditions may differ. Where two headings read alike, the source gives them in different places.

Assays:
β2AR-365:Gs complex [1] = molecular target: T1, β2AR-365:Gs complex (UniProt P04896+P07550, E27Q/G16R/N187E); test: analytical gel filtration: effect of nucleotide analogs on the R:G complex; format: biochemical; settings: for effect of phosphates resembling nucleotide phosphate groups on the complex: 5 mM; for effect of nucleotides on the β2AR:Gs complex: 0.1 mM (FIG. 3A)
T1 construct: A β2AR construct truncated after residue 365; Flag (M1); made in house; host or cells: High 5 insect cells (Gs subunits)
Protocol: FIGS. 3A-3G: Effect of nucleotide analogs, pH, and nanobodies on the stability of the β2AR:Gs complex. […] FIG. 3C, The pH limit was determined to guide the preparation of crystallization screens. For the same purpose the effect of ionic strength (data not shown) was determined using NaCl at various concentrations.
To maintain the high-affinity nucleotide-free state of the complex, apyrase (25 mU/ml, NEB) was added after 90 min to hydrolyze residual GDP released from Gαs upon binding to the receptor.

[2] = molecular target: T2, AVP:NT4LV2R:Gs complex (Arginine vasopressin receptor 2) (Homo sapiens, UniProt P30518); test: SEC stability of the AVP:NT4LV2R:Gs complex; format: biochemical
T2 construct: The N-terminally fused T4L V2R construct (NT4L-V2R); His tag (only implied by nickel-NTA purification of the receptor); made in house; host or cells: Sf9 (NT4L-V2R); High 5 (Gs); E. coli WK6 (Nb35)
Protocol: Arginine vasopressin (AVP), also known as vasopressin, argipressin or antidiuretic hormone, is a natural ligand that activates Arginine vasopressin receptor 2.
Formation of a stable complex (FIG. 19, Panel a) was accomplished by mixing His tagged Gs heterotrimer at approximately 90 μM concentration with AVP bound NT4LV2R (90 μM) and NB35 (100 μM) in 0.1 ml buffer (10 mM HEPES, pH 7.5, 100 mM NaCl, 0.1% DDM, 1 mM EDTA, 3 mM MgCl2, 10 μM AVP) and incubated for 2 hours at room temperature. Next, the AVP:NT4LV2R:Gs complex was purified in two successive affinity purification steps. The purification was monitored by SDS-PAGE (FIG. 19). First, the complex was applied on a Ni-NTA column after adding 300 μl of 1% MNG in 10 mM HEPES, pH 7.5, 100 mM NaCl buffer onto the reaction mix. Following extensive washing with buffer, the complex was eluted in 0.2% MNG, 10 mM HEPES, pH 7.5, 100 mM NaCl AVP 10 μM with 200 mM imidazole. Next the complex was applied on a FLAG-tag affinity column, washed extensively in the same buffer containing 0.01% MNG and eluted with the FLAG-peptide. […] This complex was further purified by SEC on a superdex200 column in 10 mM HEPES, pH 7.5, 100 mM NaCl, 0.01% MNG, 1 mM EDTA, 3 mM MgCl2, 1 μM AVP). […]

β2AR-365:Gs complex [3] = molecular target: T1, β2AR-365:Gs complex; test: analytical gel filtration: stability of the R:G complex in detergents; settings: for stability of the R:G complex in detergent: 48 hrs at 4° C.
Protocol: (§1) FIG. 4: Stabilizing effect of MNG-3 on the R:G complex. Panel a) Analytical gel filtration of β2AR-365:Gs complexes purified in DDM (in black), MNG-3 (in blue), or two MNG-3 analogs (in red and green) following incubation for 48 hrs at 4° C. In contrast to DDM the R:G complexes are stable in the MNG detergents. Panel b) Effect of diluting unliganded purified β2AR in DDM or MNG-3 below the critical micelle concentration (CMC) of the detergent as assayed by 3H-dihydro alprenolol (3H-DHA) saturation binding.
One challenge for crystallogenesis was to prepare a stable β2AR:Gs complex in detergent solution. The β2AR and Gs couple efficiently in lipid bilayers, but not in detergents used to solubilize and purify these proteins (Example 1). […] Apyrase, a non-selective purine pyrophosphatase, was added to hydrolyze GDP released from Gs on forming a complex with the β2AR. The complex was subsequently purified by sequential antibody affinity chromatography and size exclusion chromatography. The stability of the complex was enhanced by exchanging it into a recently developed maltose neopentyl glycol detergent (NG-310, Anatrace) (Chae et al., 2010).

unliganded purified β2AR = molecular target: T3, unliganded purified β2AR (Homo sapiens, UniProt P07550); test: 3H-DHA saturation binding after dilution of detergent below the CMC; settings: diluted 1000-fold below the CMC; DDM after 20 sec, MNG-3 after 24 hrs
T3 construct: made in house
Protocol: as §1

[4] = system: β2AR:Gs:BI167107 ternary complex; test: analytical gel filtration (size exclusion chromatography) of nanobody binding to the ternary complex; set-up: species or system human β2AR; bovine Gαs, rat Gβ1, rat Gγ2; settings: for epitope on the Gs heterotrimer relative to Nb37 (size exclusion chromatography): forms R:G:Nb:Nb37 complex
purified Gαs = molecular target: T4, purified Gαs (Bos taurus, UniProt P04896); test: Bodipy-GTPγS-FL fluorescence nucleotide binding assay on Gαs; format: biochemical, Bovine; settings: 100 nM Bodipy-GTPγS-FL, 1 μM purified Gαs, increasing concentrations of nanobody, 300 seconds
T4 construct: made in house
Protocol: (§2) To investigate the effect of nanobodies (Nb35 and Nb37) on Gs alone, nanobodies were added together with bodipy-GTPγS-FL and various Gs protein preparations in 20 mM Tris-HCl, Ph 8.0, 3 mM MgCl2, 1 mM DTT in a final volume of 200 μL. Samples containing a heterotrimeric Gs protein also included 0.1% DDM. Bodipy-GTPγS-FL is a stable fluorescent GTP analog (λex≈470 nm, λem≈515 nm). Its fluorescence intensity increases upon G protein binding and Bodipy-GTPγS-FL can therefore be used for real-time measurements of nucleotide binding to G proteins (McEwen et al., 2001). Fluorescence was measured in a 96-well microtiter plate format on a M5 fluorescence plate reader (Molecular […]).
In a first experiment (FIG. 16), increasing amounts of Nb37 were incubated with 1 μM purified GαS and 100 nM Bodipy-GTPγS-FL and the fluorescence increase was measured on a short time scale (300 seconds) to minimize the accumulation of the hydrolysis product bodipy-phosphate (Jameson et al., 2005). The Gαs subunit of the heterotrimeric Gs protein was purified as described previously (Sunahara et al., 1997). […] In a similar experiment (FIG. 17), increasing amounts of Nb35 were incubated with 1 μM purified GαS and 100 nM Bodipy-GTPγS-FL.

β2AR:Gs:BI167107 complex = test: analytical size exclusion chromatography of the ternary complex in the presence and absence of GTPγS; format: biochemical, human β2AR; bovine Gαs, rat Gβ1, rat Gγ2
Protocol: The mutual effects of Nbs and the non-hydrolyzable GTP analog GTPγS on the integrity of the agonist:β2AR:Gs ternary complex was analyzed by analytical size exclusion chromatography in the presence and absence of GTPγS.

[5] = molecular target: T5, purified Gsαβγ heterotrimer (UniProt P04896+P54311); test: Bodipy-GTPγS-FL fluorescence nucleotide binding assay on Gs heterotrimer; format: biochemical, bovine Gαs, rat Gβ1, rat Gγ2; settings: 100 nM Bodipy-GTPγS-FL, 1 μM purified Gsαβγ heterotrimer, increasing concentrations of nanobody
T5 construct: made in house; host or cells: High 5 insect cells
Protocol: as §2
In another experiment (FIG. 18), increasing amounts of Nb35 were incubated with 1 μM of the purified Gs αβγ heterotrimer and 100 nM Bodipy-GTPγS-FL.

O=P(O)(O)OP(=O)(O)O [pyrophosphate]
effect of phosphates resembling nucleotide phosphate groups on the complex (β2AR-365:Gs complex [1]): did not cause disruption of the complex

CCCc1ccccc1OCC(O)CNC(C)C (stereo not shown) [^3H-dihydro-alprenolol]
effect of M96T and M98T receptor mutations on ligand affinity (T4L-β2AR; data not shown): did not affect ligand binding affinity

CCOc1ccc2c(c1)C1(CCC(OCCN3CCOCC3)CC1)C(=O)N2S(=O)(=O)c1ccc(C(=O)NC(C)(C)C)cc1OC (stereo not shown) [SR121463, reference compound]
effect of antagonist on the AVP:NT4LV2R:Gs complex ([2]; 10 μM): disrupts the AVP:NT4LV2R:Gs complex

Nc1nc2c(ncn2[C@@H]2O[C@H](COP(=O)(O)OP(=O)(O)O)[C@@H](O)[C@H]2O)c(=O)[nH]1 [GDP, guanosine diphosphate]
effect of nucleotides on the β2AR:Gs complex (β2AR-365:Gs complex [1]): disrupt the β2AR:Gs complex; also recorded: causes dissociation of the β2AR-365:Gs complex

CCCCCCCCCCCCO[C@@H]1O[C@H](CO)[C@@H](O[C@H]2O[C@H](CO)[C@@H](O)[C@H](O)[C@H]2O)[C@H](O)[C@H]1O [DDM, n-Dodecyl-β-D-maltoside]
stability of the R:G complex in detergent (β2AR-365:Gs complex [3]): significant dissociation
3H-DHA binding of β2AR after dilution of detergent (unliganded purified β2AR): loss in 3H-DHA binding

O=C(O)P(=O)(O)O [forcarnet]
effect of phosphates resembling nucleotide phosphate groups on the complex (β2AR-365:Gs complex [1]): did not cause disruption of the complex

Nc1nc2c(ncn2[C@@H]2O[C@H](COP(=O)(O)OP(=O)(O)OP(=O)(O)O)[C@@H](O)[C@H]2O)c(=O)[nH]1 [GTP, guanosine triphosphate]
effect of nucleotides on the β2AR:Gs complex (β2AR-365:Gs complex [1]): disrupt the β2AR:Gs complex

CCCCCCCCCCC(CCCCCCCCCC)(CO[C@@H]1O[C@H](CO)[C@@H](O[C@H]2O[C@H](CO)[C@@H](O)[C@H](O)[C@H]2O)[C@H](O)[C@H]1O)CO[C@@H]1O[C@H](CO)[C@@H](O[C@H]2O[C@H](CO)[C@@H](O)[C@H](O)[C@H]2O)[C@H](O)[C@H]1O [MNG-3]
stability of the R:G complex in detergent (β2AR-365:Gs complex [3]): substantially stabilize the complex; also recorded: stable
stability of the β2AR:Gs complex in detergent at room temperature (β2AR-365:Gs complex [3]; room temperature for 24 hours): without any noticeable degradation
3H-DHA binding of β2AR after dilution of detergent (unliganded purified β2AR): maintained full ability to bind the radioligand

CC(C)NCC(O)c1ccc(O)c(O)c1 (stereo not shown) [isoproterenol]
effect of M96T and M98T receptor mutations on ligand affinity (T4L-β2AR): two-fold decrease in affinity

Nc1nc2c(ncn2[C@@H]2O[C@H](COP(=O)(O)OP(=O)(O)OP(O)(O)=S)[C@@H](O)[C@H]2O)c(=O)[nH]1 [GTPγS]
effect of nucleotides on the β2AR:Gs complex (β2AR-365:Gs complex [1]): causes dissociation of the β2AR-365:Gs complex

B1: Nb37: nanobody, SEQ ID NO: 4, binds the Gsα subunit (protein, listed as Lama glama)
VHH: QVQLQESGGGFVQAGGSLRLSCAASGSIFSKNTMAWFRQAPGKERELVAASPTGGSTAYKDSVKGRFTISRDSAKNTVLLQMNVLKPEDTAVYYCHLRQNNRGSWFHYWGQGTQVTVSSHHHHHHEPEA
binding to the β2AR:Gs:BI167107 ternary complex by analytical gel filtration [4]: further confirmed
effect on GTPγS binding to Gαs alone (purified Gαs): blocks GTPγS binding to Gsα alone in a dose dependent manner; also recorded: inhibits GTPγS binding to Gαs
protection of the ternary complex from dissociation by GTPγS (β2AR:Gs:BI167107 complex): insensitive to GTPγS treatment
protection of the ternary complex from dissociation by GTPγS (β2AR:Gs:BI167107 complex; listed as 37): protect the β2AR:Gs:BI167107 complex from dissociation

B2: Nb36: nanobody, SEQ ID NO: 3, binds Gs (protein, listed as Lama glama)
VHH: QVQLQESGGGSVQAGGSLRLSCTVSGTIFSVTVMGWYRQAPGKQRELVAGFTNTRNTNYVDSVKGRFTISKDSAKNTMYLQMNSLKPEDTAVYYCNVRRWGGTNWNDYWGQGTQVTVSSHHHHHHEPEA
binding to the β2AR:Gs:BI167107 ternary complex by analytical gel filtration [4]: further confirmed
epitope on the Gs heterotrimer relative to Nb37 (size exclusion chromatography) [4]: bind separate epitopes
protection of the ternary complex from dissociation by GTPγS (β2AR:Gs:BI167107 complex): less sensitive to GTPγS treatment
protection of the ternary complex from dissociation by GTPγS (β2AR:Gs:BI167107 complex; listed as 36): protect the β2AR:Gs:BI167107 complex from dissociation

B3: Nb35: nanobody, SEQ ID NO: 1; binds Gs at the interface of Gα and Gβ subunits (protein, listed as Lama glama)
VHH: QVQLQESGGGLVQPGGSLRLSCAASGFTFSNYKMNWVRQAPGKGLEWVSDISQSGASISYTGSVKGRFTISRDNAKNTLYLQMNSLKPEDTAVYYCARCPAPFTRDCFDVTSTTYAYRGQGTQVTVSSHHHHHHEPEA
binding to the β2AR:Gs:BI167107 ternary complex by analytical gel filtration [4]: further confirmed
epitope on the Gs heterotrimer relative to Nb37 (size exclusion chromatography) [4]: bind separate epitopes
effect on GTPγS binding to Gαs alone (purified Gαs): has no effect on GTPγS binding; also recorded: does not affect GTPγS binding to Gαs
protection of the ternary complex from dissociation by GTPγS (β2AR:Gs:BI167107 complex): protects the complex from dissociation by GTPγS; also recorded: insensitive to GTPγS treatment
protection of the ternary complex from dissociation by GTPγS (β2AR:Gs:BI167107 complex; listed as 35): protect the β2AR:Gs:BI167107 complex from dissociation
effect on GTPγS binding to the Gsαβγ heterotrimer [5]: blocks GTPγS binding to the free Gsαβγ heterotrimer in a dose dependent manner; also recorded: inhibits GTPγS binding to the Gsαβγ heterotrimer
stability of the V2R:Gs:AVP complex with nanobody in SEC ([2]; complex of V2R, Gs, Nb35 and AVP): demonstrated the stability of this complex in SEC
